Test: yeast display, Sf9 membrane polyspecificity reagent, FACS + sequencing; frameworks hold sequencing errors
How it was run: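 A nanobody's polyreactivity label depends on the gate it was sorted from. Yeast display cells were stained with 10% biotinylated, detergent-solubilized Sf9 membrane reagent for 1 hour at 4 °C, enriched on streptavidin microbeads and sorted by FACS. The low and high (top ~1%) gates were set on anti-HA fluorescence for expression and streptavidin fluorescence for reagent binding.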

Row | Sequence | polyreactivity (PSR sort gate)
1 | QVQLVESGGGLVQAGGSLRLSCAASGRTFYYYAMVWYRQAPGKERELVAAINSGGSTNYADSVKGRFTISRDNAKNTVYLQMNSLKPEDTAVYYCAKRAYTTVYGPVNYGFNYWGQGTQVTVSS | low polyreactivity
2 | QVQLVESGGGLVQAGGSLRLSCAASGRTFYYYARGWYRQAPGKERELVAAINTRGVSTYYEDSVKGRFTISRDNAKNTVYLQMNSLKPEDTAVYYCNKGFSYGRDYWGQGTQVTVSS | high polyreactivity
3 | QVQLVESGGGLVQAGGSLRLSCAASGRTFYYYTMGWYRQAPGKERELVAAITHGGSTYYADSVKGRFTISRDNAKNTVYLQMNSLKPEDTAVYYCNAVYHYPYEYWGQGTQVTVSS | high polyreactivity
4 | QVQLVESGGGLVQAGGSLRLSCAASGRTFYYYTMGWYRQAPGQERELVAAISVSGGTTYYADSVKGRFTISRDNAKYSVYLQMNSLKPDDTAVYYCAAGDGWGRRYYWGQGTQVNVSS | high polyreactivity
5 | QVQLVESGGGLVQAGGSLRLSCAASGRTFYYYVMGWYRQAPGKERELVAAISARDGSTYYADSVKGRFTISRDNAKNTVYLQMNSLKPEDTAVYYCNVRALYTRRYDYWGQGTQVTVSS | high polyreactivity
6 | QVQLVESGGGLVQAGGSLRLSCAASGRTGVNAMGWYRQAPGKERGLVAAINTSVGRTYYADSVKGRFTISRDNAKNTVYLQMNSLKQEDTAVYYCNTDRLGAARYDYWGHGTQVTVSS | low polyreactivity
7 | QVQLVESGGGLVQAGGSLRLSCAASGRTIAAYAMGWYRQAPGKERELVAAISRSGGSTYYADSVKGRFTISRDNAKNTVYLQMNSLKPEDTAVYYCAAYYIVSSLFGYWGQGTQVTVSS | high polyreactivity
8 | QVQLVESGGGLVQAGGSLRLSCAASGRTIHFNTMGWYRQAPGKERELVAAIRWGGNTYYADSVKGRFTISRDNAKNTVYLQKNSLKPEDTAVYYCAADRWYYFLMYYWGQGTQVTVSS | low polyreactivity
9 | QVQLVESGGGLVQAGGSLRLSCAASGRTIKKYAMGWDRQAPGQEREFVAAITGSGGSTYYADSVKGRFTISRDNAKNTVYLQMNSLKPEDTAVYYCAAYAYGVWHSQDGGNYWGKGTQVTVSS | low polyreactivity
10 | QVQLVESGGGLVQAGGSLRLSCAASGRTIKRYAMGWYRQAPGKERELVATISRSGSSTYYADSVKGRFTISRDNAKNTVYLQMNSLIPEDTAVYYCNAYVPDIWVNGYDSWGQGTQVTVSS | high polyreactivity
11 | QVQLVESGGGLVQAGGSLRLSCAASGRTIKSNDMGWYRQAPGKERELVSAISRRGGSTYYADSVKGRFTISRDNAKNTVYLQMNSLKPEDTAVYYCAADLTFSYRQSAGRYSTYGYWGQGTQVTVSS | high polyreactivity
12 | QVQLVESGGGLVQAGGSLRLSCAASGRTINRYAMGWYRQAPGKERELVAAISTSGGTTYYADSVKGRFTISRDNAKNTVYLQMNSLKPEDTAVYYCNARALAYWGQGTQVTVSS | high polyreactivity
13 | QVQLVESGGGLVQAGGSLRLSCAASGRTINRYDMGWYRQAPGKERELVAAISTSGGTTYYADSVKGRFTISRDNAKNTVYLQMNSLKPEDTAVYYCNARALAYWGQGTKVTVSS | high polyreactivity
14 | QVQLVESGGGLVQAGGSLRLSCAASGRTIPIYAMGWYRQEPGKERYLVAAITYSGGSTYYADSVKGRFTISRDNAKNSVYLQMNSLKPEDTAVYYCAVDGTKPYWHQRYVYWGQGTQVTVSS | low polyreactivity
15 | QVQLVESGGGLVQAGGSLRLSCAASGRTIQYYTMGWYRQAPGKERELVAGITYRGSSTYYADSVKGRFTISRDNAKNTVYLQMNSLKPEDTAVYYCAAGYWAYVWYYYWGQGTQVTVSS | high polyreactivity
16 | QVQLVESGGGLVQAGGSLRLSCAASGRTIRGYTMGWYRQAPGKERELVATITKRGGSTTYADSVKGRFTISRDNAKNTVYLQMNSLKPEDTAVYYCNKDTITSTWTPYTSWFGYWGQGTQVTVSS | high polyreactivity
17 | QVQLVESGGGLVQAGGSLRLSCAASGRTIRLYGMGSYRQAPGKERELVAAITWSGGRTYYADSVKGRFTISRDNEKNTFYLQMNSLKPEDSAVYYCAAGNSSYGKPKYYYWGQGTQVTVSS | high polyreactivity
